The results in this text go back to patent publication US5180678A, “Uses of substantially pure interleukin-9 receptor” (Ludwig Institute for Cancer Research, priority 1992, dated 1993).

Assay [1] concerns the target T1, IL-9R (Mus musculus, UniProt Q01114).
T1 sequence (Q01114 38-468): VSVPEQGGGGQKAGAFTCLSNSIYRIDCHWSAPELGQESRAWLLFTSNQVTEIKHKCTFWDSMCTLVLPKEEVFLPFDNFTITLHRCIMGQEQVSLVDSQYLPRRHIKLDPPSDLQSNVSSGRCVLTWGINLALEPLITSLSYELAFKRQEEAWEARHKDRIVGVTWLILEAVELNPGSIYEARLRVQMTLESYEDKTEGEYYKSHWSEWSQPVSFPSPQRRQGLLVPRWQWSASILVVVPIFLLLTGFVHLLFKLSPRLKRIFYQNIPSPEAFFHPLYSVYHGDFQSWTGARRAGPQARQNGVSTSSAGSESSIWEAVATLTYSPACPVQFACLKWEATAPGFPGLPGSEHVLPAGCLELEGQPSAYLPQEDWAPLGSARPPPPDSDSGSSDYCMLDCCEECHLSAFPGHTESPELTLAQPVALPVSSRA
The assay is described as follows: Competitive binding of radiolabelled rIL-9 to TS1 cells (specificity of IL-9 binding). The note with it: labelled rIL-9 6.1×10^-10 M, 10^6 TS1 cells, 3 h 4° C., no competitor 4083 ± 16. Also on record: a number of different cell types were tested for the presence of the IL-9R molecule; endogenous in cells. Here is the method:
In order to test whether the radioactive IL-9 would bind to TS1 cells which are mouse cells, which are IL-9 dependent, a competitive assay was carried out. Specifically, rIL-9 was incubated with TS1 cells in 140 ul of DMEM containing BSA (10 mg/ml) and Na3 N (10 mM). In order to determine the level of binding, a 100 fold excess of "cold", i.e., non-radiolabelledIL-9, was also mixed with the material. The rIL-9 was admixed at 6.1×10^-10 M, for three hours at 4° C., with 10^6 TS1 cells. Bound material was separated from free ligand via centrifugation over a layer of dibutyl and dioctyl phthalate (15:I). In addition, the experiments were repeated using various interleukins, interferon-γ ("INF-γ"), tumor necrosis factor ("TNF"), and granulocyte, macrophage colony stimulating factor ("GM-CSF"). All experiments were carried out in triplicate.

In assay [2] the target is T1, IL-9R. Kind of assay: Saturation binding of radiolabelled rIL-9 to TS-1 cells, Scatchard transformation. Also on record: endogenous in cells; host or cells: TS1 cells (mouse, IL-9 dependent). On the procedure: Experiments were performed to study the saturation binding of rIL-9. In these studies, as depicted in FIGS. 4a and 4b, increasing concentrations of radiolabelled rIL-9 were incubated with TS-1 cells (5×10^6 cells, 4° C. for three hours). This binding assay, as with those described supra. used 140 ul of DMEM containing BSA and Na3 N, also as described supra. Binding plateaued at 1 nM concentration, with half maximal saturation being reached at approximately 100 pM (FIG. 4a).

Setting [3] is: radiolabelled rIL-9, 5×10^6 TS-1 cells, 4° C., three hours (FIG. 4a).

Turning to “IL-1α: interleukin tested as competitor of IL-9 binding”, the “Bound Radioactivity” value with IL-9R [1] (competitor 8.7 × 10^-8 M) worked out at 4232 ± 177 cpm.

Take “IL-4: interleukin tested as competitor of IL-9 binding”: the “Bound Radioactivity” value with IL-9R [1] (competitor 8.0 × 10^-8 M) stood at 4154 ± 156 cpm.

Consider “IL-5: interleukin tested as competitor of IL-9 binding”, for which the “Bound Radioactivity” value in the assay with IL-9R [1] (competitor 2.7 × 10^-8 M) turned out to be 4642 ± 77 cpm.

With “IL-6: interleukin tested as competitor of IL-9 binding”, in the assay with IL-9R [1] (competitor 6.7 × 10^-8 M), the “Bound Radioactivity” value is 4751 ± 61 cpm.

B1: GM-CSF: granulocyte, macrophage colony stimulating factor tested as competitor of IL-9 binding (protein, UniProt P01587 18-141, looked up)
Granulocyte-macrophage …: APTRSPITVTRPWKHVEAIKEALNLLDDMPVTLNEEVEVVSNEFSFKKLTCVQTRLKIFEQGLRGNFTKLKGALNMTASYYQTYCPPTPETDCETQVTTYADFIDSLKTFLTDIPFECKKPGQK
Turning to B1, the “Bound Radioactivity” value with IL-9R [1] (competitor 6.4 × 10^-8 M) came to 4682 ± 63 cpm.

B2: rIL-9: recombinant mouse IL-9 from baculovirus infected Sf9 cells, 22-25 kilodaltons; used unlabelled and 125I-labelled (protein, UniProt P15247 19-144, looked up)
Interleukin-9: QRCSTTWGIRDTNYLIENLKDDPPSKCSCSGNVTSCLCLSVPTDDCTTPCYREGLLQLTNATQKSRLLPVFHRVKRIVEVLKNITCPSFSCEKPCNQTMAGNTLSFLKSLLGTFQKTEMQRQKSRP
modifications: 125I-labelled in some uses
notes: recombinant mouse IL-9 from baculovirus infected Sf9 cells, 22-25 kilodaltons; used unlabelled and 125I-labelled
With B2, the “density of IL-9 receptor” value with IL-9R [2] (Scatchard transformation, 3 runs, TS-1 cells (FIG. 4b)) is 3111±565 /cell. In addition, in the assay with IL-9R [2] (Scatchard transformation, 3 runs, TS-1 cells, single class of receptor (FIG. 4b)), the Kd was 0.103 ± 0.013 nM. In the assay with IL-9R [2] (setting [3]), the “concentration at which binding plateaued” value is 1 nM and the half maximal saturation result is reported as “approximately 100 pM”. For the same molecule, the “Bound Radioactivity” value with IL-9R [1] (competitor 1.2 × 10^-9 M) was 733 ± 21 cpm. Moreover, the “Bound Radioactivity” value with IL-9R [1] (competitor 6.1 × 10^-8 M) is 80 ± 8 cpm.

B3: IFN-γ: interferon-γ tested as competitor of IL-9 binding (protein, UniProt P01579 24-161, looked up)
Interferon gamma: QDPYVKEAENLKKYFNAGHSDVADNGTLFLGILKNWKEESDRKIMQSQIVSFYFKLFKNFKDDQSIQKSVETIKEDMNVKFFNSNKKKRDDFEKLTNYSVTDLNVQRKAIHELIQVMAELSPAAKTGKRKRSQMLFRG
For the molecule B3, the “Bound Radioactivity” value with IL-9R [1] (competitor 2.4 × 10^-8 M) turned out to be 4944 ± 8 cpm.
